In the Immune Epitope Database (IEDB):

Assays:
HLA-B*35:01 = assay: IEDB peptide-MHC binding, purified MHC/competitive/radioactivity; filed as Kd, often an IC50 or EC50 that approximates it; ≥ and ≤ were set here for values at or beyond the usual limits of such assays
HLA-B*53:01 = assay: as above
HLA-B*58:01 = assay: as above
HLA-A*02:01 [1] = assay: as above
HLA-A*02:06 = assay: as above
HLA-A*02:17 = assay: as above
HLA-A*02:03 [2] = assay: as above
HLA-B*51:01 [3] = assay: IEDB peptide-MHC binding, purified MHC/direct/fluorescence; filed as Kd, often an IC50 or EC50 that approximates it; ≥ and ≤ were set here for values at or beyond the usual limits of such assays
HLA-A*32:01 = assay: IEDB peptide-MHC binding, purified MHC/competitive/radioactivity; filed as Kd, often an IC50 or EC50 that approximates it; ≥ and ≤ were set here for values at or beyond the usual limits of such assays
HLA-B*08:01 = assay: as above
HLA-A*02:01 [4] = assay: IEDB peptide-MHC binding, purified MHC/competitive/fluorescence; filed as Kd, often an IC50 or EC50 that approximates it; ≥ and ≤ were set here for values at or beyond the usual limits of such assays
HLA-A*02:03 [5] = assay: as above
HLA-A*02:11 = assay: as above
HLA-A*02:12 = assay: as above
HLA-A*02:16 = assay: as above
HLA-A*02:19 = assay: as above
HLA-A*03:01 = assay: as above
HLA-A*24:03 = assay: as above; conditions: source organism: Escherichia coli F11
HLA-A*26:01 = assay: as above
HLA-A*29:02 = assay: as above; conditions: source organism: Escherichia coli F11
HLA-A*68:02 = assay: as above
HLA-A*69:01 = assay: as above
HLA-B*15:01 [6] = assay: as above
HLA-B*15:17 = assay: as above; conditions: source organism: Escherichia coli F11
HLA-B*18:01 = assay: as above
HLA-B*27:03 = assay: as above
HLA-B*39:01 = assay: as above
HLA-B*46:01 = assay: as above
HLA-B*51:01 [7] = assay: as above; conditions: source organism: Escherichia coli F11
HLA-B*57:01 = assay: as above
HLA-B*51:01 [8] = assay: IEDB peptide-MHC binding, purified MHC/competitive/radioactivity; filed as Kd, often an IC50 or EC50 that approximates it; ≥ and ≤ were set here for values at or beyond the usual limits of such assays; conditions: source organism: Dengue virus 2 Jamaica/1409/1983
HLA-B*07:02 = assay: IEDB peptide-MHC binding, purified MHC/direct/fluorescence; filed as Kd, often an IC50 or EC50 that approximates it; ≥ and ≤ were set here for values at or beyond the usual limits of such assays; conditions: source organism: Burkholderia mallei
HLA-B*15:01 [9] = assay: as above; conditions: source organism: Burkholderia mallei ATCC 23344
[10] = source organism: Dengue virus 3 Martinique/1243/1999
[11] = source organism: Dengue virus 3 China/80-2/1980
[12] = source organism: Dengue virus 1 Singapore/S275/1990
[13] = source organism: Dengue virus 1 Brazil/97-11/1997
[14] = source organism: West Nile virus
[15] = source organism: Dengue virus 4 Philippines/H241/1956
[16] = source organism: Dengue virus 2 Jamaica/1409/1983
[17] = source organism: Escherichia coli F11
[18] = source organism: Vibrio cholerae 2740-80

IASAIVLEF
Kd (HLA-B*35:01; [10]): 8.89 nM
Kd (HLA-B*53:01; [10]): 7.65 nM
Kd (HLA-B*58:01; [10]): 2.88 nM

YLDVDLHPA
Kd (HLA-A*02:01 [1]; [11]): 4.42 nM
Kd (HLA-A*02:06; [10]): 37.2 nM
Kd (HLA-A*02:17; [11]): 1890 nM

VLMLVAHYA
Kd (HLA-A*02:01 [1]; [12]): 6.67 nM
Kd (HLA-A*02:03 [2]; [13]): 2.73 nM
Kd (HLA-A*02:17; [12]): 13200 nM

RVIDSRKSV
Kd (HLA-B*51:01 [3]; [14]): 1600 nM

RTVFFVLMM
Kd (HLA-A*32:01; [15]): ≥ 51300 nM
Kd (HLA-B*58:01; [15]): 635 nM

CLWPKTHTL
Kd (HLA-A*02:01 [1]; [15]): 13.8 nM
Kd (HLA-A*02:17; [15]): 251 nM
Kd (HLA-B*08:01; [15]): 5.74 nM

QIMEVTARW
Kd (HLA-A*32:01; [12]): 56.3 nM
Kd (HLA-B*58:01; [12]): 18.6 nM

ALWDVPSPA
Kd (HLA-A*02:01 [1]; [15]): 2.72 nM
Kd (HLA-A*02:03 [2]; [15]): 16.8 nM
Kd (HLA-A*02:17; [15]): 885 nM

IPTAAGKNL
Kd (HLA-B*51:01 [3]; [14]): ≥ 20000 nM

LMLLALIAV
Kd (HLA-A*02:01 [1]; [12]): 23.3 nM
Kd (HLA-A*02:06; [13]): 8.08 nM
Kd (HLA-A*02:17; [12]): 553 nM

NPITLTAAL
Kd (HLA-B*51:01 [3]; source organism: dengue virus type 2): ≥ 20000 nM
Kd (HLA-B*08:01; [16]): 69.6 nM
Kd (HLA-B*35:01; [16]): 25.2 nM
Kd (HLA-B*53:01; [16]): 377 nM

GSGDDTWLI
Kd (HLA-A*02:01 [4]; [17]): ≥ 20000 nM
Kd (HLA-A*02:03 [5]; [17]): ≥ 20000 nM
Kd (HLA-A*02:11; [17]): ≥ 20000 nM
Kd (HLA-A*02:12; [17]): 1270 nM
Kd (HLA-A*02:16; [17]): ≥ 20000 nM
Kd (HLA-A*02:19; [17]): ≥ 20000 nM
Kd (HLA-A*03:01; [17]): ≥ 20000 nM
Kd (HLA-A*24:03): ≥ 20000 nM
Kd (HLA-A*26:01; [17]): ≥ 20000 nM
Kd (HLA-A*29:02): ≥ 20000 nM
Kd (HLA-A*68:02; [17]): ≥ 20000 nM
Kd (HLA-A*69:01; [17]): ≥ 20000 nM
Kd (HLA-B*15:01 [6]; [17]): ≥ 20000 nM
Kd (HLA-B*15:17): ≥ 20000 nM
Kd (HLA-B*18:01; [17]): ≥ 20000 nM
Kd (HLA-B*27:03; [17]): ≥ 20000 nM
Kd (HLA-B*39:01; [17]): ≥ 20000 nM
Kd (HLA-B*46:01; [17]): ≥ 20000 nM
Kd (HLA-B*51:01 [7]): ≥ 20000 nM
Kd (HLA-B*57:01; [17]): ≥ 20000 nM

FLFLMSGKGI
Kd (HLA-A*02:01 [1]; [16]): 39.6 nM
Kd (HLA-A*02:03 [2]; [16]): 11.5 nM
Kd (HLA-A*02:17; [16]): 1320 nM
Kd (HLA-B*51:01 [8]): 5580 nM

KLAQVRRAM
Kd (HLA-B*07:02): 6 nM
Kd (HLA-B*15:01 [9]): 27 nM
Kd (HLA-B*51:01 [3]; source organism: Burkholderia mallei): ≥ 20000 nM

QLWTALISL
Kd (HLA-A*02:01 [1]; [10]): 1.45 nM
Kd (HLA-A*02:17; [10]): 234 nM

LAVFPAMFW
Kd (HLA-A*02:01 [4]; [18]): ≥ 20000 nM
Kd (HLA-A*02:03 [5]; [18]): ≥ 20000 nM
Kd (HLA-A*02:11; [18]): ≥ 20000 nM
Kd (HLA-A*02:12; [18]): ≥ 20000 nM
Kd (HLA-A*02:16; [18]): ≥ 20000 nM
Kd (HLA-A*02:19; [18]): ≥ 20000 nM
Kd (HLA-A*03:01; [18]): ≥ 20000 nM
Kd (HLA-A*26:01; [18]): ≥ 20000 nM
Kd (HLA-A*68:02; [18]): ≥ 20000 nM
Kd (HLA-A*69:01; [18]): ≥ 20000 nM
Kd (HLA-B*15:01 [6]; [18]): ≥ 20000 nM
Kd (HLA-B*18:01; [18]): ≥ 20000 nM
Kd (HLA-B*27:03; [18]): ≥ 20000 nM
Kd (HLA-B*39:01; [18]): ≥ 20000 nM
Kd (HLA-B*46:01; [18]): ≥ 20000 nM
Kd (HLA-B*57:01; [18]): 37.9 nM
